Experimental findings from article doi:10.1101/2025.06.20.660733 (bioRxiv, 2025) are described below.

Test [1] concerns the target neuraminidase of A/Michigan/45/2015 (H1N1), recombinant head domain (Influenza A virus A/Michigan/45/2015 …, UniProt A0A0X9QTS2, strain). The test is described as follows: ELISA. The note with it: one partner purified. On the technique in general: An ELISA detects its analyte on a solid surface through an enzyme-linked reagent.
The target in test [2] is neuraminidase of A/Wyoming/3/2003 (H3N2), recombinant head domain (Influenza A virus A/Wyoming/3/2003 …, UniProt Q595Z6, strain). Nature of the test: cell-based or functional assay.
The target in test [3] is neuraminidase of A/Moscow/10/1999 (H3N2), recombinant head domain (Influenza A virus A/Moscow/10/1999 …, strain). The test is described as follows: BLI. The note with it: both partners purified.

B1: HB420 (human IgG1) (antibody, V domains shown)
VH: EVQLVESGAEVKKPGSSVKVSCMASGGSFGSYGFSWVRQAPGQGLEWMGGIIPLFDTPNYAQKFQGRVTITADASTSTVYMELSSLRSEDTAVYYCARDSLPYGDQNYYYGMHVWGQGTTVTVSS
VL: QSALTQPASLSGSPGQSITISCSGSSSDIGDYNYVSWYQQHPGKAPKLIIYDVTNRPSGVSDRLSGSKSGTTASLTISGLQAEDEADYYCSSYGGNYNLVFGGGTKLTVL
In the case of B1, the binding result in test [1] was “no binding”. The “NA inhibition of recombinant NA by enzyme-linked lectin assay (ELLA), IC50” value in test [2] amounted to 0.19 µg/mL.

B2: HB420 with only light chain SHMs reverted (Fab) (Fab, V domains shown)
VH: EVQLVESGAEVKKPGSSVKVSCMASGGSFGSYGFSWVRQAPGQGLEWMGGIIPLFDTPNYAQKFQGRVTITADASTSTVYMELSSLRSEDTAVYYCARDSLPYGDQNYYYGMHVWGQGTTVTVSS
VL: QSALTQPASVSGSPGQSITISCTGTSSDVGGYNYVSWYQQHPGKAPKLMIYDVSNRPSGVSNRFSGSKSGNTASLTISGLQAEDEADYYCSSYTSNYNLVFGGGTKLTVL
By Kd is commonly meant a measure of binding affinity in units of concentration. For the molecule B2, the Kd in test [3] is below 1 nM.

B3: HB420 with only heavy chain SHMs reverted (Fab) (Fab, V domains shown)
VH: EVQLVQSGAEVKKPGSSVKVSCKASGGTFSSYAISWVRQAPGQGLEWMGGIIPIFGTANYAQKFQGRVTITADESTSTAYMELSSLRSEDTAVYYCARDSLPYGDQNYYYGMHVWGQGTTVTVSS
VL: QSALTQPASLSGSPGQSITISCSGSSSDIGDYNYVSWYQQHPGKAPKLIIYDVTNRPSGVSDRLSGSKSGTTASLTISGLQAEDEADYYCSSYGGNYNLVFGGGTKLTVL
B3: in test [3], the Kd was 1.1 nM.

B4: HB420 fragment antigen-binding (Fab) (Fab, V domains shown)
VH: EVQLVESGAEVKKPGSSVKVSCMASGGSFGSYGFSWVRQAPGQGLEWMGGIIPLFDTPNYAQKFQGRVTITADASTSTVYMELSSLRSEDTAVYYCARDSLPYGDQNYYYGMHVWGQGTTVTVSS
VL: QSALTQPASLSGSPGQSITISCSGSSSDIGDYNYVSWYQQHPGKAPKLIIYDVTNRPSGVSDRLSGSKSGTTASLTISGLQAEDEADYYCSSYGGNYNLVFGGGTKLTVL
With B4, in test [3], the Kd is below 1 nM.

B5: HB420 with all SHMs reverted (Fab) (Fab, V domains shown)
VH: EVQLVQSGAEVKKPGSSVKVSCKASGGTFSSYAISWVRQAPGQGLEWMGGIIPIFGTANYAQKFQGRVTITADESTSTAYMELSSLRSEDTAVYYCARDSLPYGDQNYYYGMHVWGQGTTVTVSS
VL: QSALTQPASVSGSPGQSITISCTGTSSDVGGYNYVSWYQQHPGKAPKLMIYDVSNRPSGVSNRFSGSKSGNTASLTISGLQAEDEADYYCSSYTSNYNLVFGGGTKLTVL
Turning to B5, the dissociation constant Kd in test [3] stood at 1.8 nM.
